Holding throughout (type): biochemical, Arabidopsis thaliana
Substrate in series [1]: N[C@@H](Cc1ccc(O)cc1)C(=O)O
The series is described as follows: forward assay, 4-hydroxyphenylpyruvate at A331, nonlinear regression. To be noted: acceptor 2-ketoglutarate at saturation, 100 mM HEPES-NaOH pH 8.2, 30°C. From the text: forward assay, 4-hydroxyphenylpyruvate at A331, nonlinear regression on At5g36160 (L-tyrosine aminotransferase, TAT)

Substrate in series [2]: N[C@@H](Cc1ccccc1)C(=O)O
The series is described as follows: forward assay, phenylpyruvate at A320, nonlinear regression. Particulars: acceptor 2-ketoglutarate at saturation, 100 mM HEPES-NaOH pH 8.2, 30°C. From the text: forward assay, phenylpyruvate at A320, nonlinear regression on At5g36160 (L-tyrosine aminotransferase, TAT)

Substrate in series [3]: O=C(O)C(=O)Cc1ccc(O)cc1
The series is described as follows: reverse assay, coupled to 2-ketoglutarate dehydrogenase, NADH at A340, nonlinear regression. To be noted: amino donor glutamate at saturation, 100 mM HEPES-NaOH pH 8.2, 30°C. From the text:
(§1) reverse assay, coupled to 2-ketoglutarate dehydrogenase, NADH at A340, nonlinear regression on At5g36160 (L-tyrosine aminotransferase, TAT)

Substrate in series [4]: N[C@@H](CCC(=O)O)C(=O)O
The description is as above. Particulars: amino acceptor at saturation (acceptor for this constant only in supplement), 100 mM HEPES-NaOH pH 8.2, 30°C.
Source text: as §1

Substrate in series [5]: O=C(O)C(=O)Cc1ccccc1
The description is as above. Particulars: amino donor glutamate at saturation, 100 mM HEPES-NaOH pH 8.2, 30°C.
Source text: as §1

Substrate in series [6]: O=C(O)CCC(=O)C(=O)O
Briefly: forward assay, product absorbance, nonlinear regression. Particulars: amino donor at saturation (donor for this constant only in supplement), 100 mM HEPES-NaOH pH 8.2, 30°C. From the text:
forward assay, product absorbance, nonlinear regression on At5g36160 (L-tyrosine aminotransferase, TAT)

B1: At5g36160 (L-tyrosine aminotransferase, TAT) (Arabidopsis thaliana) (protein)
chain: MGENGAKRWNFGANEVVERSNSLTIRDYLNTLINCLDGGDVRPVIPLGHGDPSPFPSFRTDQAAVEAICDAVRSTKFNNYSSSSGVPVARKAVAEYLSSDLSYQISPNDVHITAGCVQAIEILISALAIPGANILLPRPTYPMYDSRAAFCQLEVRYFDLLPENGWDVDLDGVEALADDKTVAILVINPCNPCGNVFSRQHLQKIAETACKLGILVIADEVYDHFAFGDKPFVSMAEFAELVPVIVLGAISKRWFVPGWRLGWMVTLDPHGIMKDSGFVQTLINVVNMSTDPATFIQGAMPDIIGNTKEEFFSSKLEMVKKCAEICYEELMKIPCITCPCKPEGSMFTMVKLNFSLLEDISDDLDFCSKLAKEESMIILPGQAVGLKNWLRITFAVELELLIEGFSRLKNFTERHSKNQP
notes: full-length cDNA in pET30a, N-terminal His6 and S-tag kept, E. coli BL21-CodonPlus-RIPL, Talon purified, about 52 kDa on SDS-PAGE; EC 2.6.1.5
For B1, the Michaelis-Menten constant (Km) in series [1] was determined as 190 ± 160 µM; in series [2], 840 ± 200 µM; in series [3], 220 ± 50 µM; in series [4], 1400 ± 160 µM; in series [5], 130 ± 60 µM; in series [6], 1200 ± 270 µM. For the same protein, the catalytic constant (kcat) in series [1] worked out at 0.08 s⁻¹; in series [2] it was 0.08 s⁻¹; in series [3], 6.1 s⁻¹; in series [4] it was 6.1 s⁻¹; in series [5] it was 6.1 s⁻¹; in series [6], 0.08 s⁻¹.

As a reminder, the Km is the concentration of substrate that gives half-maximal velocity. As usually defined, the kcat is the number of substrate molecules converted per active site and unit of time at saturation.

These data come from publication PMC3005984, “Identification and Partial Characterization of an L-Tyrosine Aminotransferase (TAT) from Arabidopsis thaliana” (Biochemistry Research International, 2010).
